# Measurements taken from FireProtDB (doi:10.1111/j.1432-1033.1995.tb20713.x).
# B1: Adenylate kinase, P07170 (parent)
# chain: MSSSESIRMVLIGPPGAGKGTQAPNLQERFHAAHLATGDMLRSQIAKGTQLGLEAKKIMDQGGLVSDDIMVNMIKDELTNNPACKNGFILDGFPRTIPQAEKLDQMLKEQGTPLEKAIELKVDDELLVARITGRLIHPASGRSYHKIFNPPKEDMKDDVTGEALVQRSDDNADALKKRLAAYHAQTEPIVDFYKKTGIWAGVDASQPPATVWADILNKLGKD
# Variants of: B1
# Conditions: Saccharomyces cerevisiae (strain ATCC 204508 / S288c), Thermal, Fluorescence, reversible: yes, structure 2AKY, whole UniProt chain shown; for ddG of mutation (higher = less stable) / unfolding free energy: 25 °C
variant,measurement,setting,value
I215F,ddG of mutation (higher = less stable),"pH 7.5, MOPS-NaOH 30 mM",7.99 kJ/mol
same,unfolding free energy,"pH 7.5, MOPS-NaOH 30 mM",7.99 kJ/mol
same,Tm,"pH 7.5, MOPS-NaOH 30 mM",40 °C
same,"change of melting temperature, mutant - wild type (higher = more stable)","pH 7.5, MOPS-NaOH 30 mM",-7.7 °C
same,unfolding enthalpy (van 't Hoff),"pH 7.5, MOPS-NaOH 30 mM",250 kJ/mol
T79H,unfolding free energy,"pH 5, Acetic acid-NaOH 30 mM",12 kJ/mol
same,Tm,"pH 5, Acetic acid-NaOH 30 mM",46.8 °C
same,unfolding enthalpy (van 't Hoff),"pH 5, Acetic acid-NaOH 30 mM",285 kJ/mol
same,ddG of mutation (higher = less stable),"pH 7.5, MOPS-NaOH 30 mM",9 kJ/mol
same,unfolding free energy,"pH 7.5, MOPS-NaOH 30 mM",6.99 kJ/mol
same,Tm,"pH 7.5, MOPS-NaOH 30 mM",46.6 °C
same,"change of melting temperature, mutant - wild type (higher = more stable)","pH 7.5, MOPS-NaOH 30 mM",-1.1 °C
same,unfolding enthalpy (van 't Hoff),"pH 7.5, MOPS-NaOH 30 mM",210 kJ/mol
T112H,unfolding free energy,"pH 4.5, Acetic acid-NaOH 30 mM",3.01 kJ/mol
same,Tm,"pH 4.5, Acetic acid-NaOH 30 mM",40.2 °C
same,unfolding enthalpy (van 't Hoff),"pH 4.5, Acetic acid-NaOH 30 mM",130 kJ/mol
same,unfolding free energy,"pH 7.6, MOPS-NaOH 30 mM",5.02 kJ/mol
same,Tm,"pH 7.6, MOPS-NaOH 30 mM",42.9 °C
same,unfolding enthalpy (van 't Hoff),"pH 7.6, MOPS-NaOH 30 mM",175 kJ/mol
N171D,ddG of mutation (higher = less stable),"pH 7.5, MOPS-NaOH 30 mM",9 kJ/mol
same,unfolding free energy,"pH 7.5, MOPS-NaOH 30 mM",6.99 kJ/mol
same,Tm,"pH 7.5, MOPS-NaOH 30 mM",47.1 °C
same,"change of melting temperature, mutant - wild type (higher = more stable)","pH 7.5, MOPS-NaOH 30 mM",-0.6 °C
same,unfolding enthalpy (van 't Hoff),"pH 7.5, MOPS-NaOH 30 mM",200 kJ/mol
V10I,ddG of mutation (higher = less stable),"pH 7.5, MOPS-NaOH 30 mM",5.02 kJ/mol
same,unfolding free energy,"pH 7.5, MOPS-NaOH 30 mM",11 kJ/mol
same,Tm,"pH 7.5, MOPS-NaOH 30 mM",46.2 °C
same,"change of melting temperature, mutant - wild type (higher = more stable)","pH 7.5, MOPS-NaOH 30 mM",-1.5 °C
same,unfolding enthalpy (van 't Hoff),"pH 7.5, MOPS-NaOH 30 mM",270 kJ/mol
